Key:
[1] = substrate: Nc1ncnc2c1ncn2[C@@H]1O[C@H](COP(=O)(O)O)[C@@H](O)[C@@H]1O; test: HPLC of Ara-A formation, Lineweaver-Burk; format: biochemical, Streptomyces antibioticus; conditions: 50 mM HEPES pH 7.5, 1 mM MgCl2, 0.01-1.5 mM substrate, 0.2 mg/mL PenF
Description: HPLC of Ara-A formation, Lineweaver-Burk on PenF

[2] = substrate: Nc1ncnc2c1ncn2[C@H]1C[C@H](O)[C@@H](COP(=O)(O)O)O1; test: HPLC of deoxyadenosine formation, Lineweaver-Burk; format: biochemical, Streptomyces antibioticus; conditions: 50 mM HEPES pH 7.5, 1 mM MgCl2, 0.2-2.5 mM substrate, 0.2 mg/mL PenF
Description: HPLC of deoxyadenosine formation, Lineweaver-Burk on PenF

B1: PenF (Streptomyces antibioticus) (protein)
chain: MVTLPDRVRAHVLADFATADPAHDIHHLDRVAALAGDIAVLLGADPQTAQVAAYVHDYHRVEEARQGRRPIRPEEARSAVLDVLERSEVPEKLHGTILRAVELTGRYRFGGDELDGEDLIAAAVHDADNLDAMGAVGVGRAFAFGGLLGEPLWEPAAGLKELYTEGETSSVLAHLYEKLVHLEKDMLTEPARRLAAERAFQLHRFAAEFRSQWGEEDVVSHSGGTRVHWDPLTRFLAVTQPEPDGITVTHIGFRGQAMLAFDEQGQPVGVDLLGAPEALTHCVPHAQRSRAWVADAAGGWLLDAEADVVWISISEAPVRRRLTAVGDIEVQLREGKLATLRMHLTEEAPVSVGGEGAP
notes: codon-optimized penF in pET28a (NdeI/XhoI), C-terminal His6 tag, E. coli BL21(DE3), Ni-NTA; about 42 kDa by MALDI-TOF (45 kDa SDS-PAGE)
B1 was tested, and the Km [1] was 71.5 µM, the Vmax [1] was 170 µM/min and the kcat [1] was 0.565 s⁻¹. For the same protein, the kcat/Km [1] was 7900 M⁻¹ s⁻¹, the Km [2] was 344 µM and the Vmax [2] was 11.9 µM/min. It also gave a kcat [2] of 0.04 s⁻¹ and a kcat/Km [2] of 117 M⁻¹ s⁻¹.
